As a reminder, the Kd is the equilibrium constant for the complex coming apart.

Numbering of substitutions follows the chain as printed. In names and notes the source's numbering stands.

The values below come from patent publication US20200308270A1 (Zymeworks, published 2020).

One experiment deals with T1, recombinant human HER3 (human, UniProt P21860 20-643).
T1 construct: Bought reagent
Nature of the experiment: SPR (Biacore T200), HER3 captured via anti-His, Fab analyte.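 Also: single cycle kinetics with five Fab concentrations, referenced against a blank flow cell and mock-buffer injections, sensorgrams fit to a 1:1 binding model.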

The next experiment has as its target T2, recombinant human IL-17A (human, UniProt Q16552 20-155, limits assumed).
T2 construct: Bought reagent
Nature of the experiment: SPR (ProteOn), IL-17A immobilized, Fab analyte.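 Also: IL-17A amine-coupled on a GLC sensor chip at roughly 75–200 RU, double-referenced sensorgrams fitted with a Langmuir binding model.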

T2 sequence (Q16552 20-155 limits assumed): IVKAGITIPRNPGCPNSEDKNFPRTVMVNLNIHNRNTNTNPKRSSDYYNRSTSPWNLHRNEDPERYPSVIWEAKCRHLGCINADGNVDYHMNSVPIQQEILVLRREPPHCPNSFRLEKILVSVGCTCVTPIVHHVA
Description for recombinant human HER3: HER3 affinity determination in Fabs was carried out as follows. The screening of Fabs (preparative SEC purified) for binding to HER3 antigen occurred in two steps: an indirect capture of HER3 onto the anti-His antibody, followed by the injection of five concentrations of Fabs, for kinetic analysis using single cycle kinetics. […] HER3 was injected at 4-8 μg/mL over the active flow cell for 60 s at a flow rate of 10 μL/min. […] HER3 was not captured on the reference (blank) flow cell. […] The captured HER3 surfaces were regenerated by 10 mM glycine pH 1.5 for 120 s at 30 μL/min to prepare the surfaces for the next injection cycle. At least two mock-buffer injections were performed for each analyte injection and used for referencing. The resulting single cycle kinetics sensorgrams were analyzed using Biacore T200 BiaEvaluation software version 3.0 and fit to the 1:1 binding model.
Description for recombinant human IL-17A: IL-17 affinity determination was carried out as follows. The IL-17A surface was generated using a GLC sensorchip activated by a 1:10 dilution of the standard BioRad sNHS/EDC solutions injected for 140s at 100 pt/min in the ligand (vertical) direction. Immediately after the activation, 1 to 4 microg/mL solution of IL-17A in 10 mM NaOAc pH 4.5 was injected in the ligand (vertical) direction at a flow rate of 25 or 100 microL/min until approximately 75-200 resonance units (RUs) were immobilized. Remaining active groups were quenched by a 140s injection of 1M ethanolamine at 100 μL/min also in the ligand direction. […] Firstly, two buffer injections for 30s at 100 microL/min in the analyte (horizontal) direction were used to stabilize the baseline. […] Sensorgrams were aligned and double-referenced using the buffer blank injection and interspots, and the resulting sensorgrams were analyzed using ProteOn Manager software v3.1. The double-referenced sensorgrams were fit to the Langmuir binding model.

B1: H3 designed Vlambda-Ckappa chimeric Fab, design 18 (E83F_D85T_T105E) (Fab, name in Kabat numbering, V domains shown)
VH: QVQLQESGGGLVKPGGSLRLSCAASGFTFSSYWMSWVRQAPGKGLEWVANINRDGSASYYVDSVKGRFTISRDDAKNSLYLQMNSLRAEDTAVYYCARDRGVGYFDLWGRGTLVTVSS
VL: QSALTQPASVSGSPGQSITISCTGTSSDVGGYNFVSWYQQHPGKAPKLMIYDVSDRPSGVSDRFSGSKSGNTASLIISGLQADDFATYYCSSYGSSSTHVIFGGGTKVEVLR
Take B1: the Kd in the experiment with recombinant human HER3 is 90.5 nM.

B2: H3 wild-type lambda Fab (Fab, V domains shown)
VH: B1 VH
VL: B1 VL with F85E, T87D, E109T, R112G
notes: Truncated heavy chain (VH-CH1-upper IgG1 hinge) and 'wild-type' lambda light chain (H3 VL + IGLC2); also called WT; H3 Fab
Take B2: the Kd in the experiment with recombinant human HER3 was found to be 92.4 nM.

B3: H3 designed Vlambda-Ckappa chimeric Fab, design 28 (E83V_D85V_T105E) (Fab, name in Kabat numbering, V domains shown)
VH: B1 VH
VL: B1 VL with F85V, T87V
As for B3, the Kd with recombinant human HER3 was determined as 89.2 nM.

B4: H3 designed Vlambda-Ckappa chimeric Fab, design 37 (E83A_D85T) (Fab, name in Kabat numbering, V domains shown)
VH: B1 VH
VL: B1 VL with F85A, E109T
Take B4: in the experiment with recombinant human HER3, the Kd worked out at 83.5 nM.

B5: H3 designed Vlambda-Ckappa chimeric Fab, design 22 (E83F_D85T_T105E_V106I_L106AK) (Fab, V domains shown)
VH: B1 VH
VL: B1 VL with V110I, L111K
Regarding B5, the Kd in the experiment with recombinant human HER3 worked out at 80.5 nM.

B6: H3 designed Vlambda-Ckappa chimeric Fab, design 14 (E83F) (Fab, name in Kabat numbering, V domains shown)
VH: B1 VH
VL: B1 VL with T87D, E109T
For B6, the Kd with recombinant human HER3 was found to be 92.6 nM.

B7: H3 designed Vlambda-Ckappa chimeric Fab, design 38 (E83A_D85T_T105E) (Fab, name in Kabat numbering, V domains shown)
VH: B1 VH
VL: B1 VL with F85A
Turning to B7, in the experiment with recombinant human HER3, the Kd was determined as 72.2 nM.

B8: H3 designed Vlambda-Ckappa chimeric Fab, design 17 (E83F_D85T) (Fab, name in Kabat numbering, V domains shown)
VH: B1 VH
VL: B1 VL with E109T
Regarding B8, the Kd with recombinant human HER3 is 83.1 nM.

B9: H3 designed Vlambda-Ckappa chimeric Fab, design 15 (E83F_T105E) (Fab, name in Kabat numbering, V domains shown)
VH: B1 VH
VL: B1 VL with T87D
For B9, the Kd with recombinant human HER3 turned out to be 90.8 nM.

B10: H3 designed Vlambda-Ckappa chimeric Fab, design 25 (E83V_V106I) (Fab, name in Kabat numbering, V domains shown)
VH: B1 VH
VL: B1 VL with F85V, T87D, E109T, V110I
As to B10, in the experiment with recombinant human HER3, the Kd was determined as 80.6 nM.

B11: H3 designed Vlambda-Ckappa chimeric Fab, design 29 (E83V_D85T_T105E_V106I) (Fab, name in Kabat numbering, V domains shown)
VH: B1 VH
VL: B1 VL with F85V, V110I
On to B11, for which the Kd with recombinant human HER3 was 77 nM.

B12: H3 designed Vlambda-Ckappa chimeric Fab, design 31 (E83I_T105E) (Fab, name in Kabat numbering, V domains shown)
VH: B1 VH
VL: B1 VL with F85I, T87D
On to B12, for which, in the experiment with recombinant human HER3, the Kd was found to be 82.7 nM.

B13: H3 designed Vlambda-Ckappa chimeric Fab, design 24 (E83V_T105E) (Fab, name in Kabat numbering, V domains shown)
VH: B1 VH
VL: B1 VL with F85V, T87D
With B13, the Kd with recombinant human HER3 stood at 102 nM.

B14: H3 designed Vlambda-Ckappa chimeric Fab, design 19 (E83F_D85V_T105E) (Fab, name in Kabat numbering, V domains shown)
VH: B1 VH
VL: B1 VL with T87V
For B14, in the experiment with recombinant human HER3, the dissociation constant (Kd) was determined as 83 nM.

B15: H3 designed Vlambda-Ckappa chimeric Fab, design 33 (E83I_D85T_T105E) (Fab, name in Kabat numbering, V domains shown)
VH: B1 VH
VL: B1 VL with F85I
Regarding B15, the Kd with recombinant human HER3 worked out at 89 nM.

B16: H3 designed Vlambda-Ckappa chimeric Fab, design 36 (E83A_T105E) (Fab, name in Kabat numbering, V domains shown)
VH: B1 VH
VL: B1 VL with F85A, T87D
With B16, the Kd with recombinant human HER3 is 66.4 nM.

B17: H3 designed Vlambda-Ckappa chimeric Fab, design 20 (E83F_D85T_T105E_V106I) (Fab, name in Kabat numbering, V domains shown)
VH: B1 VH
VL: B1 VL with V110I
In the case of B17, the Kd with recombinant human HER3 was found to be 85.8 nM.

B18: H3 Vlambda-Ckappa chimeric Fab (Fab, V domains shown)
VH: B1 VH
VL: B1 VL with F85E, T87D, E109T
notes: Parent chimeric Fab without stabilizing substitutions; also called chimera; VL-CK chimeric Fab
Take B18: the Kd with recombinant human HER3 stood at 92.7 nM.

B19: H3 designed Vlambda-Ckappa chimeric Fab, design 16 (E83F_V106I) (Fab, name in Kabat numbering, V domains shown)
VH: B1 VH
VL: B1 VL with T87D, E109T, V110I
In the case of B19, in the experiment with recombinant human HER3, the Kd is 88.5 nM.

B20: H3 designed Vlambda-Ckappa chimeric Fab, design 23 (E83V) (Fab, name in Kabat numbering, V domains shown)
VH: B1 VH
VL: B1 VL with F85V, T87D, E109T
Take B20: the Kd with recombinant human HER3 was found to be 95.7 nM.

B21: H3 designed Vlambda-Ckappa chimeric Fab, design 35 (E83A) (Fab, name in Kabat numbering, V domains shown)
VH: B1 VH
VL: B1 VL with F85A, T87D, E109T
Regarding B21, the Kd with recombinant human HER3 was 59.1 nM.

B22: H3 designed Vlambda-Ckappa chimeric Fab, design 21 (E83F_D85V_T105E_V106I) (Fab, name in Kabat numbering, V domains shown)
VH: B1 VH
VL: B1 VL with T87V, V110I
Regarding B22, the Kd with recombinant human HER3 came to 82.6 nM.

B23: H3 designed Vlambda-Ckappa chimeric Fab, design 26 (E83V_D85T) (Fab, name in Kabat numbering, V domains shown)
VH: B1 VH
VL: B1 VL with F85V, E109T
Regarding B23, the Kd with recombinant human HER3 was 82.1 nM.

B24: H3 designed Vlambda-Ckappa chimeric Fab, design 34 (E83I_D85T_T105E_V106I) (Fab, name in Kabat numbering, V domains shown)
VH: B1 VH
VL: B1 VL with F85I, V110I
On to B24, for which, in the experiment with recombinant human HER3, the Kd was 75.4 nM.

B25: H3 designed Vlambda-Ckappa chimeric Fab, design 30 (E83I) (Fab, name in Kabat numbering, V domains shown)
VH: B1 VH
VL: B1 VL with F85I, T87D, E109T
With B25, in the experiment with recombinant human HER3, the Kd came to 95.1 nM.

B26: H3 designed Vlambda-Ckappa chimeric Fab, design 27 (E83V_D85T_T105E) (Fab, name in Kabat numbering, V domains shown)
VH: B1 VH
VL: B1 VL with F85V
Turning to B26, the Kd in the experiment with recombinant human HER3 came to 84.1 nM.

B27: H3 designed Vlambda-Ckappa chimeric Fab, design 39 (E83A_D85T_T105E_V106I) (Fab, name in Kabat numbering, V domains shown)
VH: B1 VH
VL: B1 VL with F85A, V110I
Take B27: the Kd with recombinant human HER3 amounted to 89.6 nM.

B28: H3 designed Vlambda-Ckappa chimeric Fab, design 32 (E83I_D85T) (Fab, name in Kabat numbering, V domains shown)
VH: B1 VH
VL: B1 VL with F85I, E109T
As to B28, in the experiment with recombinant human HER3, the Kd was 83.8 nM.

B29: CAT-2200 designed Vlambda-Ckappa chimeric Fab, design 18 (E83F_D85T_T105E) (Fab, V domains shown)
VH: not shown
VL: NFMLTQPHSVSESPGKTVTISCTRSSGSLANYYVQWYQQRPGSSPTIVIFANNQRPSGVPDRFSGSIDSSSNSASLTISGLKTEDFATYYCQTYDPYSVVFGGGTKLEVLR
In the case of B29, the Kd with recombinant human IL-17A came to 0.3 nM.

B30: CAT-2200 designed Vlambda-Ckappa chimeric Fab, design 19 (E83F_D85V_T105E) (Fab, V domains shown)
VH: not shown
VL: B29 VL with T88V
Take B30: the Kd with recombinant human IL-17A is 0.3 nM.

B31: CAT-2200 designed Vlambda-Ckappa chimeric Fab, design 27 (E83V_D85T_T105E) (Fab, V domains shown)
VH: not shown
VL: B29 VL with F86V
B31: the Kd with recombinant human IL-17A was 0.2 nM.

B32: CAT-2200 designed Vlambda-Ckappa chimeric Fab, design 30 (E83I) (Fab, V domains shown)
VH: not shown
VL: B29 VL with F86I, T88D, E108T
For the molecule B32, in the experiment with recombinant human IL-17A, the Kd came to 0.3 nM.

B33: CAT-2200 designed Vlambda-Ckappa chimeric Fab, design 31 (E83I_T105E) (Fab, V domains shown)
VH: not shown
VL: B29 VL with F86I, T88D
B33: in the experiment with recombinant human IL-17A, the Kd turned out to be 0.3 nM.

B34: CAT-2200 designed Vlambda-Ckappa chimeric Fab, design 32 (E83I_D85T) (Fab, V domains shown)
VH: not shown
VL: B29 VL with F86I, E108T
For the molecule B34, the Kd with recombinant human IL-17A amounted to 0.3 nM.

B35: CAT-2200 designed Vlambda-Ckappa chimeric Fab, design 28 (E83V_D85V_T105E) (Fab, V domains shown)
VH: not shown
VL: B29 VL with F86V, T88V
Turning to B35, in the experiment with recombinant human IL-17A, the Kd worked out at 0.2 nM.

B36: CAT-2200 designed Vlambda-Ckappa chimeric Fab, design 33 (E83I_D85T_T105E) (Fab, V domains shown)
VH: not shown
VL: B29 VL with F86I
For B36, the Kd with recombinant human IL-17A was 0.3 nM.

B37: CAT-2200 designed Vlambda-Ckappa chimeric Fab, design 20 (E83F_D85T_T105E_V106I) (Fab, V domains shown)
VH: not shown
VL: B29 VL with V109I
In the case of B37, the Kd with recombinant human IL-17A was determined as 0.3 nM.

B38: CAT-2200 designed Vlambda-Ckappa chimeric Fab, design 24 (E83V_T105E) (Fab, V domains shown)
VH: not shown
VL: B29 VL with F86V, T88D
B38: the Kd in the experiment with recombinant human IL-17A came out at 0.3 nM.

B39: CAT-2200 designed Vlambda-Ckappa chimeric Fab, design 26 (E83V_D85T) (Fab, V domains shown)
VH: not shown
VL: B29 VL with F86V, E108T
Regarding B39, in the experiment with recombinant human IL-17A, the Kd was found to be 0.3 nM.

B40: CAT-2200 designed Vlambda-Ckappa chimeric Fab, design 25 (E83V_V106I) (Fab, V domains shown)
VH: not shown
VL: B29 VL with F86V, T88D, E108T, V109I
For the molecule B40, the Kd with recombinant human IL-17A is 0.4 nM.

B41: CAT-2200 designed Vlambda-Ckappa chimeric Fab, design 23 (E83V) (Fab, V domains shown)
VH: not shown
VL: B29 VL with F86V, T88D, E108T
For B41, in the experiment with recombinant human IL-17A, the Kd is 0.2 nM.

B42: CAT-2200 designed Vlambda-Ckappa chimeric Fab, design 15 (E83F_T105E) (Fab, V domains shown)
VH: not shown
VL: B29 VL with T88D
Take B42: in the experiment with recombinant human IL-17A, the Kd stood at 0.3 nM.

B43: CAT-2200 designed Vlambda-Ckappa chimeric Fab, design 14 (E83F) (Fab, V domains shown)
VH: not shown
VL: B29 VL with T88D, E108T
Regarding B43, the Kd with recombinant human IL-17A came to 0.3 nM.

B44: CAT-2200 designed Vlambda-Ckappa chimeric Fab, design 34 (E83I_D85T_T105E_V106I) (Fab, V domains shown)
VH: not shown
VL: B29 VL with F86I, V109I
For the molecule B44, the Kd with recombinant human IL-17A is 0.2 nM.

B45: CAT-2200 designed Vlambda-Ckappa chimeric Fab, design 35 (E83A) (Fab, V domains shown)
VH: not shown
VL: B29 VL with F86A, T88D, E108T
In the case of B45, the Kd with recombinant human IL-17A amounted to 0.2 nM.

B46: CAT-2200 designed Vlambda-Ckappa chimeric Fab, design 21 (E83F_D85V_T105E_V106I) (Fab, V domains shown)
VH: not shown
VL: B29 VL with T88V, V109I
Take B46: the Kd with recombinant human IL-17A was found to be 0.3 nM.

B47: CAT-2200 designed Vlambda-Ckappa chimeric Fab, design 17 (E83F_D85T) (Fab, V domains shown)
VH: not shown
VL: B29 VL with E108T
As to B47, the Kd with recombinant human IL-17A came out at 0.3 nM.

B48: CAT-2200 designed Vlambda-Ckappa chimeric Fab, design 29 (E83V_D85T_T105E_V106I) (Fab, V domains shown)
VH: not shown
VL: B29 VL with F86V, V109I
Take B48: in the experiment with recombinant human IL-17A, the Kd turned out to be 0.3 nM.

B49: CAT-2200 designed Vlambda-Ckappa chimeric Fab, design 16 (E83F_V106I) (Fab, V domains shown)
VH: not shown
VL: B29 VL with T88D, E108T, V109I
Regarding B49, in the experiment with recombinant human IL-17A, the Kd amounted to 0.3 nM.
